The values that follow come from US11857697B2, “Compositions and methods for obtaining 3-dimensional lung-like epithelium and related uses thereof” (THE REGENTS OF THE UNIVERSITY OF MICHIGAN, priority 2017, dated 2024).

“Also recorded” adds a separate entry of the source.

Assay [1] relates to e13.5 CD1 mouse epithelial lung buds. The assay is described as follows: EdU incorporation quantified by flow cytometry in cultured mouse lung buds. The class given is cell-based. As to conditions: 50-100 ng/mL FGF7 versus 1-10 ng/mL, one week culture, 1 hour EdU pulse. On the procedure: Epithelial lung buds were dissected from e13.5 CD1 mice and plated in a matrigel droplet as described above. 3-4 individual buds from one mouse were placed in each droplet and were pooled to serve as a single biological replicate. Three droplets (corresponding to 3 independent biological samples) were assigned to each experimental group, receiving either 1, 10, 50 or 100 ng/mL of FGF7 for 7 days. Media was changed every 2-3 days. Cells were incubated with EdU for 1 hour and stained with the Click-It EdU Alexa Fluor 488 system (ThermoFisher Cat# C10337) according to the manufacturer's instructions. As a control, wells that received 10 ng/mL of FGF7 for 7 days were taken through the EdU steps but were not stained were used to set the gates. For analysis, lung buds were broken into a single cell suspension. 1 mL of accutase (Sigma Cat# A6964) was added to a 15 mL conical tube containing pooled epithelial buds and cells were incubated at 37 degrees Celsius with frequent visual inspection until clumps of cells were no longer visible. 3 mL of basal media (see below) was added to each tube, and cells were centrifuged at 300 g for 5 minutes at 4 degrees Celsius. The supernatant was then withdrawn, and cells were resuspended with 1 mL sterile PBS, filtered through a 70 uM strainer to remove any cell clumps and transferred to a cell sorting tube. […]

Assay [2] deals with E13.5 mouse lung buds. The assay can be described thus: Marker expression (QRT-PCR, immunostaining) in cultured mouse lung buds. The class given is cell-based. On the procedure:
RNA was extracted using the MagMAX-96 Total RNA Isolation System (Life Technologies). RNA quality and concentration was determined on a Nanodrop 2000 spectrophotometer (Thermo Scientific). 100 ng of RNA was used to generate a cDNA library using the SuperScript VILO cDNA master mix kit (Invitrogen) according to manufacturer's instructions. qRT-PCR analysis was conducted using Quantitect SYBR Green Master Mix (Qiagen) on a Step One Plus Real-Time PCR system (Life Technologies). Expression was calculated as a change relative to GAPDH expression using arbitrary units, which were calculated by the following equation: [2^(GAPDH Ct−Gene Ct)]×10,000. A Ct value of 40 or greater was considered not detectable. A list of primer sequences used can be found in Table 1.
Mouse bud, human bud, and HLO tissue was fixed in 4% Paraformaldehyde (Sigma) for 2 hours and rinsed in PBS overnight. Tissue was dehydrated in an alcohol series, with 30 minutes each in 25%, 50%, 75% Methanol:PBS/0.05% Tween-20, followed by 100% Methanol, and then 100% Ethanol. Tissue was processed into paraffin using an automated tissue processor (Leica ASP300). Paraffin blocks were sectioned 5-7 uM thick, and immunohistochemical staining was performed as previously described (Spence et al., 2009). A list of antibodies, antibody information and concentrations used can be found in Table 2. PAS Alcian blue staining was performed using the Newcomer supply Alcian Blue/PAS Stain kit (Newcomer Supply, Inc.) according to manufacturer's instructions.
For whole mount staining tissue was placed in a 1.5 mL eppendorf tube and fixed in 4% paraformaldehyde (Sigma) for 30 minutes. Tissue was then washed with PBS/0.05% Tween-20 (Sigma) for 5 hours, followed by a 2.5-hour incubation with blocking serum (PBS-Tween-20 plus 5% normal donkey serum). Primary antibodies were added to blocking serum and tissue was incubated for at least 24 hours at 4 degrees Celsius. Tissue was then washed for 5 hours with several changes of fresh PBS-Tween-20. Secondary antibodies were added to fresh blocking solution and tissue was incubated for 12-24 hours, followed by 5 hours of PBS-Tween-20 washes. Tissue was then dehydrated to 100% methanol and carefully moved to the center of a single-well EISCO concave microscope slide (ThermoFisher Cat#S99368) using a glass transfer pipette. 5-7 drops of Murray's clear ([…] [Sigma]) were added to the center of the slide, and slides were coverslipped and sealed with clear nail polish.

B1: Recombinant Human Fibroblast Growth Factor 7 (protein, UniProt P21781 32-194, looked up)
Fibroblast growth factor 7: CNDMTPEQMATNVNCSSPERHTRSYDYMEGGDIRVRRLFCRTQWYLRIDKRGKVKGTQEMKNNYNIMEIRTVAVGIVAIKGVESEFYLAMNKEGKLYAKKECNEDCNFKELILENHYNTYASAKWTHNGGEMFVALNQKGIPVRGKKTKKEQKTAHFLPMAIT
notes: Recombinant human growth factor from R&D systems, used at 10 ng/mL unless otherwise noted
Consider B1, for which the “Proliferation (EdU labeled cells)” value in assay [1] is reported as “increased proliferation significantly; also recorded: significant increase in labeled cells”. Moreover, the “Scgb1a1 expression after switch to FGF7 only (QRT-PCR)” value in assay [2] (5 days 4F media then 4 days FGF7 only, versus 4F) is “increased”. Moreover, in assay [2] (5 days 4F media then 4 days FGF7 only, versus 4F throughout), the “SOX9 protein and mRNA expression after switch to FGF7 only” value was “reduction of SOX9 protein and mRNA expression”. In assay [2] (FGF7 culture, compared to day 0), the “Sox9 expression over time in culture (QRT-PCR)” value is “significantly reduced after 3 days in culture”. In assay [2] (FGF7 culture, length of time in culture), the “Expression of mature alveolar markers Aqp5 and Sftpb over time (QRT-PCR)” value is on record as “significant increases”.
